Experimental findings from US20030228306A1 are described below.

The target in test [1] is CC-chemokine receptor CCR5 (UniProt P51681). Kind of test: cell-based or functional assay.
The target is the same in test [2]. The experiment in a line: flow cytometry on mitogen-stimulated PBMC, m.f.i. A general note: Flow cytometry measures light scatter and fluorescence of single cells or particles in a stream.

Sequence of UniProt P51681 (P51681 whole entry): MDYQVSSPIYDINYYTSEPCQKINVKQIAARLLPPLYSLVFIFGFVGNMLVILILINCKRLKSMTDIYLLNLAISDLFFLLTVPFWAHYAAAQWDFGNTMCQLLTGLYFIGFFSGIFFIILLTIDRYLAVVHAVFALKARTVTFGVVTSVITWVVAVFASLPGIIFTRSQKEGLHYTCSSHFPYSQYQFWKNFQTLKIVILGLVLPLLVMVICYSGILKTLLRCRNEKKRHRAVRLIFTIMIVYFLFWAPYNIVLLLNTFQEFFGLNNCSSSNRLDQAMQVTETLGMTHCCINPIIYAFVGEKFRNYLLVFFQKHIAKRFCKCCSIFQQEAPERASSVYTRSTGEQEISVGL

In the case of anti-CCR5 mAb 2D7 (antibody), in test [1], the IC50, inhibition of JR-FL entry (luciferase entry assay) worked out at 0.026 µg/mL; the IC50, inhibition of fusion between PM1 cells and HeLa-EnvJR-FL+ cells (RET assay) came to 1.6 µg/mL; the K (equal to the IC50 value), inhibition of cell-cell fusion, median effect fit (RET assay) was determined as 0.36 µg/mL.
The substance anti-CCR5 monoclonal antibody PA14 registered a fold difference in m.f.i. against PA9 in test [2] of 7 fold. For the same substance, in test [1], the IC50, inhibition of JR-FL entry (luciferase entry assay) amounted to 0.024 µg/mL; the IC50, inhibition of fusion between PM1 cells and HeLa-EnvJR-FL+ cells (RET assay) amounted to 1.7 µg/mL; the IC50 for calcium influx inhibition, ratio against 2D7 was determined as 8 fold.
